Measurements from the MegaScale stability set (Tsuboyama et al. 2023).

B1: EHEE_rd4_0086 (parent)
chain: EIHIRTNGEEQARKVYKMLAKRNYDVKIEQHNGQWVVTAS

Variants of: B1
Experiment: folding stability dG (cDNA display proteolysis); higher = more stable
Details: PBS, room temperature

| Variant | folding stability dG [kcal/mol] |
| --- | --- |
| EIHIRTNGEEQARKVYKMLAKRNYDVKILQHNGQWVVTAS [E29L] | 1.75 |
| EIHIRTNGEEQARKVYKMLAKRNYDVKIRQHNGQWVVTAS [E29R] | 1.68 |
| EIHIRTNGEEQARKVYKMLAKRNYDVKIKQHNGQWVVTAS [E29K] | 1.6 |
| EIHIRTNGEEQARKVYKMLAKRNYDVKIEQRNGQWVVTAS [H31R] | 1.98 |
| EIHIRTNGEEQARKVYKMHAKRNYDVKIEQHNGQWVVTAS [L19H] | -0.775 |
| EIHIRTNGEEQAIKVYKMLAKRNYDVKIEQHNGQWVVTAS [R13I] | 1.67 |
| EIHIRTNGEEQATKVYKMLAKRNYDVKIEQHNGQWVVTAS [R13T] | 1.18 |
| EIHIRTNGEEQAQKVYKMLAKRNYDVKIEQHNGQWVVTAS [R13Q] | 1.47 |
| EIHIRTNGEEQARTVYKMLAKRNYDVKIEQHNGQWVVTAS [K14T] | 1.32 |
| EIHIRTNGEEQARLVYKMLAKRNYDVKIEQHNGQWVVTAS [K14L] | 1.91 |
| EIHIRTNGEEQARNVYKMLAKRNYDVKIEQHNGQWVVTAS [K14N] | 1.29 |
| EIHIRTNGEEQARGVYKMLAKRNYDVKIEQHNGQWVVTAS [K14G] | 0.786 |
| EIHKRTNGEEQARKVYKMLAKRNYDVKIEQHNGQWVVTAS [I4K] | -0.031 |
| EIHFRTNGEEQARKVYKMLAKRNYDVKIEQHNGQWVVTAS [I4F] | 2.16 |
| EIHGRTNGEEQARKVYKMLAKRNYDVKIEQHNGQWVVTAS [I4G] | -0.953 |
| EIHIRTNGEEPARKVYKMLAKRNYDVKIEQHNGQWVVTAS [Q11P] | 0.372 |
| EIHIRTNGEERARKVYKMLAKRNYDVKIEQHNGQWVVTAS [Q11R] | 1.51 |
| EIHIRTNGEEEARKVYKMLAKRNYDVKIEQHNGQWVVTAS [Q11E] | 2.1 |
| EIHIRTNGEEQARKVYKMLAKRNYDVKIEQHNGQWVVTAH [S40H] | 1.77 |
| EIHIRTNGEEQARKVYKMLAKRNYDVKIEQHNGQWVVTAV [S40V] | 1.98 |
| EIHIRTNGEEQARKVYKMLAKRNYDVKIEQHNGQWVVTAM [S40M] | 1.81 |

| Variant | folding stability dG [kcal/mol] |
| --- | --- |
| EIHIRTNGPEQARKVYKMLAKRNYDVKIEQHNGQWVVTAS [E9P] | 1.92 |
| EIHIRTNGVEQARKVYKMLAKRNYDVKIEQHNGQWVVTAS [E9V] | 1.76 |
| EIHIRTNGFEQARKVYKMLAKRNYDVKIEQHNGQWVVTAS [E9F] | 2.33 |
| EIHIRTNGSEQARKVYKMLAKRNYDVKIEQHNGQWVVTAS [E9S] | 1.14 |
| EIHIRTNGEEQARKVYKMLAKRNYDVKSEQHNGQWVVTAS [I28S] | -0.437 |
| EIHIRTNGEEQARKVYKMLAKRNYDVKKEQHNGQWVVTAS [I28K] | -0.269 |
| EIHIRTNGEEQARKVYKMLAKRNYDVKTEQHNGQWVVTAS [I28T] | -0.114 |
| EIHIRTNGEEQARKVYKMLAKRNYDVKAEQHNGQWVVTAS [I28A] | 0.154 |
| EIHIRTNGEEQARKVYKMLAKRNYKVKIEQHNGQWVVTAS [D25K] | 2.36 |
| EIHIRTNGEEQARKVYKMLAKRNYEVKIEQHNGQWVVTAS [D25E] | 1.91 |
| EIHIRTNGEEQARKVYKMLAKRNYLVKIEQHNGQWVVTAS [D25L] | 2.21 |
| EIHIRTNGEEQARKVYKMLAKRNYDVKIEQHNGQWFVTAS [V36F] | 2.06 |
| EIHIRTNGEEQARKVYKMLAKRNYDVKIEQHNGQWAVTAS [V36A] | 0.857 |
| EIHIQTNGEEQARKVYKMLAKRNYDVKIEQHNGQWVVTAS [R5Q] | 1.52 |
| EIHIVTNGEEQARKVYKMLAKRNYDVKIEQHNGQWVVTAS [R5V] | 2.32 |
| EIHIPTNGEEQARKVYKMLAKRNYDVKIEQHNGQWVVTAS [R5P] | 1.19 |
| EIHIRTNGEEQARKVYKMLAKRRYDVKIEQHNGQWVVTAS [N23R] | 1.68 |
| EIHIRTNGEEQARKVYKMLAKRHYDVKIEQHNGQWVVTAS [N23H] | 2.35 |
| EIHIRTNGEEQARKCYKMLAKRNYDVKIEQHNGQWVVTAS [V15C] | 2.6 |
| EIHIRTNGEEQARKWYKMLAKRNYDVKIEQHNGQWVVTAS [V15W] | 2.43 |
| EIHIRTNGEEQARKMYKMLAKRNYDVKIEQHNGQWVVTAS [V15M] | 1.62 |

| Variant | folding stability dG [kcal/mol] |
| --- | --- |
| EIHIRTNGEEQARKVYKMLAKRNYDVGIEQHNGQWVVTAS [K27G] | 0.682 |
| EIHIRTNGEEQARKVYKMLAKRNYDVWIEQHNGQWVVTAS [K27W] | 1.52 |
| EIHIRTNGEEQARKVYKMLAKRNYDVMIEQHNGQWVVTAS [K27M] | 1.32 |
| EIHIRTNGEEQARKVYKMLAKRNYDVAIEQHNGQWVVTAS [K27A] | 1.26 |
| EIHIRTNGEEQARKVYKMLAKRNYDVVIEQHNGQWVVTAS [K27V] | 1.45 |
| EIHIRTNGEEQARKVYKMLAKRNYDVKIEQHNGQMVVTAS [W35M] | -0.847 |
| EIHIRTNGEEQARKVYKMLAKRNYDVKIEQHNGQTVVTAS [W35T] | -0.759 |
| EIHIRTEGEEQARKVYKMLAKRNYDVKIEQHNGQWVVTAS [N7E] | 1.69 |
| EIHIRTWGEEQARKVYKMLAKRNYDVKIEQHNGQWVVTAS [N7W] | 2.08 |
| EIHIRTMGEEQARKVYKMLAKRNYDVKIEQHNGQWVVTAS [N7M] | 1.69 |
| EIHIRTPGEEQARKVYKMLAKRNYDVKIEQHNGQWVVTAS [N7P] | 1.32 |
| EIHIRTNGEEQARKVYKMLAKRNYDVKIEQHNGVWVVTAS [Q34V] | 2.27 |
| EIHIRTNGEEQARKVYKMLAKRNYDVKIEQHNGEWVVTAS [Q34E] | 1.87 |
| EIHIRTNGEEQARKVYKMLAKRNYDVKIEQHNGKWVVTAS [Q34K] | 1.61 |
| EIHIRTNGEEQARKVYKMLAKRNYDVKIEQHNGLWVVTAS [Q34L] | 1.86 |
| EIHIRTNGEEQARKVYKMLAKRNYDVKIEQHNGTWVVTAS [Q34T] | 1.95 |
| EIHIRTNGEEQARKVYKMLAKRNYDVKIEQHNGHWVVTAS [Q34H] | 2.04 |
| EIHIRTNGEEQARKVYKMLAKRNYDVKIEQHNGQWVVTPS [A39P] | 0.297 |
| EIHIRTNGEEQARKVYKMLAKRNYDVKIEQHNGQWVVTSS [A39S] | 1.21 |
| EIHIRTNGEEQARKVYKMLAKRNYDVKIEQHNGQWVVTES [A39E] | 0.112 |
| EIHIRTNGEEQARKVYKMLAKRNYDVKIEQHNGQWVVTLS [A39L] | 2.36 |
